According to the DeepSol protein solubility set:

Experiment: soluble on expression in E. coli; label from the status in PepcDB or PDB records

Question: Which “soluble on expression in E. coli” value does the source give for “MTVDLTNVFQQIDGDYDNLKELLREAVAIQSVSGDPSKRDETIRMVHWMKEKLETIGTICELADLGTQELEGKTVKLPPVLLGTLGSDKNKKTLLVYGHLDVQPAAKSDGWDTEPFELVEKDGKLFGRGSSDDKGPVLCWFHAIRAAQKNGIDLPVNIKFCLEGMEESGSVGLPELLEREKDRFLAGVDFVCISDSYWLGTKKPCLTYGLRGICSFFVEVTGIKQDLHSGVFGGVIHEPLQDLMWVMSQLTTVDNRIKIPGLYEQVAPLSAAEEKTYDDIEFDVAEFRDSVGASKLPTEDKKTLLLRRWREPSLAFHGIEGAFYGPGEKTVIPSKVIGKFSIRIVPDMDPEQVNRLTVEYLNKVWAERGSPNVFKPRPGHSAKPWVVDVNDSNFLAGARAMKRVHGVEPDRIREGCSIPITLTFQELTGKSVLLLPIGAADDMAHSQNEKNNIWNYVEGVKTLLAYIMELGSA” here?
Answer: not soluble

Question: For “MTVDSSMSSGYCSLDEELEDCFFTAKTTFFRNAQSKHLSKNVCKPVEETQRPPTLQEIKQKIDSYNTREKNCLGMKLSEDGTYTGFIKVHLKLRRPVTVPAGIRPQSIYDAIKEVNLAATTDKRTSFYLPLDAIKQLHISSTTTVSEVIQGLLKKFMVVDNPQKFALFKRIHKDGQVLFQKLSIADRPLYLRLLAGPDTEVLSFVLKENETGEVEWDAFSIPELQNFLTILEKEEQDKIQQVQKKYDKFRQKLEEALRESQGKPG”, which “soluble on expression in E. coli” value is on record?
Answer: not soluble

Question: For “MTVEQNVLQQSAAQKHQQTFLNQLREITGINDAQILQQALKDSNGNLELAVAFLTAKNAKTPPQEET”, which “soluble on expression in E. coli” value is on record?
Answer: soluble

Question: For “MTVLEAVLEIQAITGSRLLSMVPGPARPPGSCWDPTQCTRTWLLSHTPRRRWISGLPRASCRLGEEPPPLPYCDQAYGEELSIRHRETWAWLSRTDTAWPGAPGVKQARILGELLLV”, which “soluble on expression in E. coli” value is on record?
Answer: not soluble

Question: With “MTVLLSKRAINILLMLLDLEGSITTQELAESFTVSVRTIKYDLEDIRAWFEQHDETLYSKRNKGIWLDLPDSKRLLLKNEIIDVDRFETYPDQKRRVNVLIFQLLSVKGYLTAQQLADELLVSRNTIVSDLEQVERLLQAYDLTLIRQARQGFTISGEESNVRLLMEFITQKELTEYDIYQIMNYVTKTKGAEKIPKIKFGSGTLFQGCYRSALKKMRNLINPLDQNQFDYAEILSITLRVAIAAARMQMAHTIGTYRVLSQKTRFEQRNEVPLLLLQEVFERYDLPLLADEYFYIYSDLFGTHQRQDMVQLTKQVIESVSKELNYPFVNDRQLFTNLFAHLSLRFTKKHLFINEYNPFSEEIKGKHPALFLAIQSACKQLIQRSVLLVNDSFCAYIALHFLAAQERQQQEAKVVRIVYVCSTGLGVTSLIEQKILEEVPNVELAGFASVLNATEVIQAEKPDLVLSIFPIEEMTYPFIKVSPLLTDTDLSLIREEVDKILLGKRQGKGTARSTKSDVIEKNERIQSQDLLVKAYIIYEELKRMFQTKLLSEYQEAFLLHVLLMTHRITFNKQYEEIPCNREVSHERQEEIRQIECLFAKNELPVNHAEISALLNYLEQPKEEEDGTSNGSTGDHSTKC” as the sequence, how does the “soluble on expression in E. coli” value read?
Answer: not soluble

Question: Which “soluble on expression in E. coli” value does the source give for “MTVPTYDKFIEPVLRYLATKPEGAAARDVHEAAADALGLDDSQRAKVITSGQLVYKNRAGWAHDRLKRAGLSQSLSRGKWCLTPAGFDWVASHPQPMTEQETNHLAFAFVNVKLKSRPDAVDLDPKADSPDHEELAKSSPDDRLDQALKELRDAVADEVLENLLQVSPSRFEVIVLDVLHRLGYGGHRDDLQRVGGTGDGGIDGVISLDKLGLEKVYVQAKRWQNTVGRPELQAFYGALAGQKAKRGVFITTSGFTSQARDFAQSVEGMVLVDGERLVHLMIENEVGVSSRLLKVPKLDMDYFE” here?
Answer: soluble

Question: With “MTVPYETAKAALLEAAMMHVPFDGWSETTFQAAARDAELSPSVARAICPRGAVDLAIAFHKAGDAAMLDRLAETDLSAMKFRDKVTAAVRIRLEVIEDKEAVRRGTTLFALPMYAADGAKLIWGTCDAIWTTLGDTSDDVNWYTKRATLSGVYSSTVLYWLGDDSPDHMATWGFLDRRIENVMAIEQVKAKVRQSPTLSRLMTGPNWLLSQIKAPRITPKTDLEHHHHHH” as the sequence, how does the “soluble on expression in E. coli” value read?
Answer: soluble

Question: Which “soluble on expression in E. coli” value does the source give for “MTVTAPNALNFECETGNYHTFCPISCVAWLYQKIEDSFFLVIGTKTCGYFLQNAMGVMIFAEPRYAMAELEEGDISAQLNDYEELKRLCLEIKRDRNPSVIVWIGTCTTEIIKMDLEGLAPKLEAEIGIPIVVARANGLDYAFTQGEDTVLAAMAARCPTSTAISDPEERNPIQRLLNFGKKKEEVQAQSSQYHPHPPLVLFGSLPDPVVTQLTLELKKQGIKVSGWLPAKRYTELPVIDEGYYVAGVNPFLSRTATTLIRRRKCQLITAPFPIGPDGTRTWIEQICATFGIQPQGLAEREAETWQKLSDYLELVRGKSVFFMGDNLLEISLARFLIRCGMRVLEIGIPYMDKRYQAAELALLSQTCAEMGHPLPTIVEKPDNYNQLQRIKALQPDLVITGMAHANPLEARGISTKWSVEFTFAQIHGFGNARDILELVTRPLRRNQALAGLGWQKLVAH” here?
Answer: soluble

Question: Which “soluble on expression in E. coli” value does the source give for “MTVVKEELKEALEMLKNTGVRITPQRHAILEYLVESMTHPTADDIYKALEGKFPNMSVATVYNNLRVFKEVGLVKELTYGDASSRFDYVTSQHYHVICEKCGKIVDFPYGGLEKLEEEAAKTTGFVINSHRLEIYGVCPECHKA” here?
Answer: not soluble

Question: With “MTWPAFSLGVWGYPERMDPRVPPGQFVTERFPILTYGETPKVAKEAWRLEVTGLVETPLVLTYEDLLARPQVELTRDFHCVTRWSRLDVTWKGVRTRDLLEEARPRPEAVAALVESYGGYTTNLLLEDLLREDVLLAHTLFGKPLPPERGGPVRLLVPHLYAWKSAKWVRRIVLLDHLELGFWERLGYHWRGDPWKEERFQEGPVPAHRIRFAARNKPGR” as the sequence, how does the “soluble on expression in E. coli” value read?
Answer: soluble

Question: For “MTYFVVEVTDQEIRREKDKARELRRSRWWQTVISRRTCHWCGGDFPPEELTMDHVVPIVRGGKSSRGNVVPACKECNNRKKYLLPLEWEEYLEKARNGGEQLEHHHHHH”, which “soluble on expression in E. coli” value is on record?
Answer: soluble

Question: Which “soluble on expression in E. coli” value does the source give for “MTYIAPEESAFGVGFFERLEANAKPMSLTRGPDAWDVLESIKRNVSNILNTRIGGAQSAPHLGLVDFNDATLETLDLSVRIKLAIQQCLERYEPRLTRVLVRADQDSFNPLTLRFHITATINSEALHEKVQFSLLLDQSRKYRVF” here?
Answer: not soluble

Question: Which “soluble on expression in E. coli” value does the source give for “MTYMVSILLVSPRPGHDVATAERNDVLRATGLAPEQLEQVLIDDVEKHLPDFSRFDGIIVGGSPLNISNETYSDWQKHVHTELSRIVYSAIPSFFICYGNSFLVDLTGGTVGRTHPEDSGATIVSLTADGLTDRITRDLPTTFTSLTGHTENAICLGDSTVLLATGDTCPIQMIRANETTWACQFHAEMDAQAMKTRMDFYKDYGYFSPEDYDAIVSSLPSIDTTYSNRVLRNFIEVCEGKR” here?
Answer: not soluble

Question: With “MVADVNLKTGEVGTRIAEINSNSDKRYVQRIIDEPKFSLMANLALSDADKSSTVVHFKASVRKGEKNLTNCIRDGLQEHFGKKIVSLAGQFIIQTGKARLHVMPDFPGCPFENNAEVDKWLNYFEMSAPLICATVMHSYDPGHNLRLEHTHCYSDHGDAGHYHYDVTPETVSYEGWFAPASKIYRIDEIKNR” as the sequence, how does the “soluble on expression in E. coli” value read?
Answer: not soluble

Question: For “MVAGGFGVGKTTLIGSVSEVRPLRMEEPITQASAGVDDLRGTPHKTTTTVAMDFGRIHMAGGRLALYLFGLPGQSRFQPLWEDLAEGALGCLVLADTRDLDASHDALGLLDGAGIPYAVAINTFPGSPSYPEAELREALALEPATPLTYCDARDRTSSLHALITLTEYLSEHRSAALLESRRLEHHHHHH”, which “soluble on expression in E. coli” value is on record?
Answer: not soluble

Question: With “MVAKGRIIRVTGPLVVADGMKGAKMYEVVRVGELGLIGEIIRLEGDKAVIQVYEETAGVRPGEPVVGTGASLSVELGPGLLTSIYDGIQRPLEVIREKTGDFIARGVTAPALPRDKKWHFIPKAKVGDKVVGGDIIGEVPETSIIVHKIMVPPGIEGEIVEIAEEGDYTIEEVIAKVKTPSGEIKELKMYQRWPVRVKRPYKEKLPPEVPLITGQRVIDTFFPQAKGGTAAIPGPFGSGKTVTQHQLAKWSDAQVVIYIGCGERGNEMTDVLEEFPKLKDPKTGKPLMERTVLIANTSNMPVAAREASIYTGITIAEYFRDMGYDVALMADSTSRWAEALREISGRLEEMPGEEGYPAYLASKLAEFYERAGRVVTLGSDYRVGSVSVIGAVSPPGGDFSEPVVQNTLRVVKVFWALDADLARRRHFPAINWLTSYSLYVDAVKDWWHKNIDPEWKAMRDKAMALLQKESELQEIVRIVGPDALPERERAILLVARMLREDYLQQDAFDEVDTYCPPEKQVTMMRVLLNFYDKTMEAINRGVPLEEIAKLPVREEIGRMKFERDVSKIRSLIDKTNEQFEELFKKYGA” as the sequence, how does the “soluble on expression in E. coli” value read?
Answer: soluble

Question: For “MVALFQHSPYWQADGYGHSHRLKCQHFKQHRQYNDKLEISSNLGPQFNALLNILLNIVHPTLSHDTRRSKGLKIEGLLQSRELGNSWTVTMCIWVLKALQSSAPNKPLDWLDPMPCFQNLLARGTP”, which “soluble on expression in E. coli” value is on record?
Answer: soluble

Question: For “MVASCKSTSQPVSLSQKDSSPDFNRCRNDSEDTVNLTGSGDIYIDKESSQKALDDLLRKVTLDGGISLKDAKSSEILAAYERKIQMLQLELQMKNVPKPVVEIETTSQKIRDLAQECEALRDSNKQLTDHMTRGNLEINQLKVQLEEVKQKCDSIETSLGMCITEKAGLKTQLTESLQNAERNVHTAQNEISKLNTELAQSVTRIELFLAENRELKQEFEEKVVECEVLKEHIRQIDLELKNKQSDMERALLQISAAEQKAAKKELELIEAEKHLKLYESRLSDRERDLNAKNLEIDRLKLDLDAARRNLQKLEQMREAMLSLASSSSN”, which “soluble on expression in E. coli” value is on record?
Answer: not soluble

Question: With “MVASHSFEASILAYVLATELKRKGIEINPEHSALIALFHDAGETLLGDLPKWATSRINKRDAEVEAFDELGIGKELFLELKDLNTNEAKVAKLSDRLSTY” as the sequence, how does the “soluble on expression in E. coli” value read?
Answer: soluble

Question: Which “soluble on expression in E. coli” value does the source give for “MVDKIIFTVTPIFSIPPRGAAAVETWMYQVAQRTNFPNRIVCIKNPGYSNYTFVNDNCSIHRVGFSRIYKRLFQKWTRLDPLPYSQRILNIAHDFPITKESVIVVHNSMKLYTQIRKRAPQARVVIHMHNAFEPKLLEQNVKMIVPSLYLKKYYQSYLANADIEIVPNGIDLETYQSNFQPITRSELNISPEEKIIFYAGRIVPDKGILLLMQSFEKLAAAHKNLKLVVIGDYTEMSKSDKGAYQRNVREIAKRLKDRCIMLGSIPPEKMHCYYPLADLVVIPSQFQEPFCMVAIEAMGAGKPVLVSTRGGMTEFVKENTTGFHLKEPMTADSISSDILKTLANPELTAVAKQGQDFVFDHYSWDGVTQRFEEVIHNWFE” here?
Answer: not soluble

Question: With “MVDTMMNTNTDGVTAVPPIFPLPSTTPNRNNNNELAMLAQKQIVAGLLLQQPTIVQAAVNGTNSQKHLADIDYTNVIQTLQALGTTNLKAFSLLLDPQSQTSQLISEDTRPSASSSPSSTATAVSNSGQSNATSTSSSSTEPEYKPRNVREKVYADGYIMSFDKKSCCGTKEFWRCERKNDCNARMHSDINTREIVRKLHPHNHEKPSPEELAFYEQDFSTLHPNYCHPVKSINRSYMQRKLSRASHVSQALPIAPQQIKAEPMEVDTTNQTIQNFQQNNNLMLLASINAAATAAAAATSAGISPPVVGQKRVSTTVMPITLKSQRTTPKEEEDSSQLMSQEEFRITYELTKKLMEMMKPKTEIGVRWQGDEGSILLFLSHDNGAEENVFFPVVVMNRDEKSLITALEGFTGKRCEGKLALCYSQRVNVLVHEALISNWTHGKLFLVNTDAPALWRLTPVDAFGEPLNHV” as the sequence, how does the “soluble on expression in E. coli” value read?
Answer: not soluble

Question: With “MVESKATLEEYVQTQLLQNWIYNDGAYLSLAFDAMCEGNFDRLCELDWQLSATKVARESREGSFKLGVRLLKIFIRYETHTLLTAYQQAIAEKRVQGYFPIVFAMVAQAMGLSKADTLYAFYYNAAVGVITNGVKLIPLSQMDGQDILFDLRGSLVQAVELSLDPDEEWLGAATLANDIRAMQHEVLYTRLYMSLEHHHHHH” as the sequence, how does the “soluble on expression in E. coli” value read?
Answer: not soluble

Question: For “MVFFNRNKIMNKDSTQTWGLKRDITPCFGARLVQEGHRLHFLADRAGFTGSFSEVQTLQLDEAFPHFVAHLELMLLSCELNPRYAHCVTLYRNGLTGEADTLGSHGYVYIAILNRHGFNRHLRVILEHHHHHH”, which “soluble on expression in E. coli” value is on record?
Answer: not soluble
